Assay results reported in US20230183314A1.

Legend:
[1] = molecular target: human prostate specific membrane antigen (PSMA) (human) (UniProt Q04609); assay: flow cytometry, 22Rv1 cells (low PSMA expression) stained with the PE conjugate; number printed over the white bar
[2] = molecular target: human prostate specific membrane antigen (PSMA) (human) (UniProt Q04609); assay: flow cytometry, LNCaP cells (high PSMA expression) stained with the PE conjugate; number printed over the white bar

Sequence of human prostate specific membrane antigen (PSMA) (human) (Q04609 whole entry): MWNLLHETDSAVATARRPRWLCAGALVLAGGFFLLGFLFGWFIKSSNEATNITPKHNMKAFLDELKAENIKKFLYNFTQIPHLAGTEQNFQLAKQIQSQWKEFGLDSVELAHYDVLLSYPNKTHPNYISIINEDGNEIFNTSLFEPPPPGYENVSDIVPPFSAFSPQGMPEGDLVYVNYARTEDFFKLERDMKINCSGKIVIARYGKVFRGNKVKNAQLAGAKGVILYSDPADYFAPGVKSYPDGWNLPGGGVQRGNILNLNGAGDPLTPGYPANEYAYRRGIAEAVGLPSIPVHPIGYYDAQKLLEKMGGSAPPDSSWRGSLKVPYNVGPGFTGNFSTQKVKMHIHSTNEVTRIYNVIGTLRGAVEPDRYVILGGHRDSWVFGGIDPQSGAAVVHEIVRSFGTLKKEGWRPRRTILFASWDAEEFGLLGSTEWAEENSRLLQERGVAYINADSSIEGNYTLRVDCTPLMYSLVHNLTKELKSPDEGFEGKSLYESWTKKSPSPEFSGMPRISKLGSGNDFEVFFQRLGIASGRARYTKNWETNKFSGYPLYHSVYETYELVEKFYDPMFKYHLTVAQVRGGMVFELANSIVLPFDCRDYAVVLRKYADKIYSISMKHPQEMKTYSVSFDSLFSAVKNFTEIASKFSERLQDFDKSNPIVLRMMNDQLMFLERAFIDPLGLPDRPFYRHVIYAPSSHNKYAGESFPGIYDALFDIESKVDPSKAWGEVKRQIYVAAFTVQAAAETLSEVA

MFI [1]: 13.7 | MFI [2]: 263
Substance: Anti PSMA antibody-PE conjugate from Biolegend (clone LNI-17 catalog #342504)
